system: Escherichia coli TOP10; test: shrunken log2 fold change of peptide-encoding DNA abundance (4.5 h post-induction vs induction); higher = less antimicrobial activity (less host growth inhibition); conditions: time post-induction: 4.5 h; library: site-saturation at positions 5, 18, 19, 20
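Note: peptides expressed intracellularly from a pBAD plasmid library in pooled LB shake-flask culture, induced with 0.3% L-arabinose, DNA abundance read by NGS, three biological replicates, DESeq2 with apeglm shrinkage.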

Row | Sequence | shrunken log2 fold change
1 | RRIRNRPPRLPRPRPRPDYRPRP | -0.668
2 | RRIRNRPPRLPRPRPRPDYSPRP | -0.0548
3 | RRIRNRPPRLPRPRPRPEAAPRP | 0.902
4 | RRIRNRPPRLPRPRPRPEAFPRP | 0.0792
5 | RRIRNRPPRLPRPRPRPEDDPRP | -0.01
6 | RRIRNRPPRLPRPRPRPEEGPRP | 0.234
7 | RRIRNRPPRLPRPRPRPEENPRP | -0.00776
8 | RRIRNRPPRLPRPRPRPEFIPRP | -0.304
9 | RRIRNRPPRLPRPRPRPEFLPRP | 0.00817
10 | RRIRNRPPRLPRPRPRPEGRPRP | 0.177
11 | RRIRNRPPRLPRPRPRPEHAPRP | 0.0107
12 | RRIRNRPPRLPRPRPRPEHSPRP | 0.0507
13 | RRIRNRPPRLPRPRPRPEHYPRP | -0.38
14 | RRIRNRPPRLPRPRPRPEIRPRP | 0.126
15 | RRIRNRPPRLPRPRPRPEKNPRP | 0.907
16 | RRIRNRPPRLPRPRPRPEKQPRP | 0.0721
17 | RRIRNRPPRLPRPRPRPEKYPRP | -0.805
18 | RRIRNRPPRLPRPRPRPELEPRP | 0.47
19 | RRIRNRPPRLPRPRPRPELGPRP | 0.193
20 | RRIRNRPPRLPRPRPRPEMIPRP | -0.0601
21 | RRIRNRPPRLPRPRPRPENLPRP | 0.00699
22 | RRIRNRPPRLPRPRPRPERLPRP | 0.0695
23 | RRIRNRPPRLPRPRPRPERSPRP | 0.129
24 | RRIRNRPPRLPRPRPRPESTPRP | -0.0329
25 | RRIRNRPPRLPRPRPRPEVGPRP | 0.662

Row | Sequence | shrunken log2 fold change
26 | RRIRNRPPRLPRPRPRPEWIPRP | -0.16
27 | RRIRNRPPRLPRPRPRPEWMPRP | 0.066
28 | RRIRNRPPRLPRPRPRPEWRPRP | 0.404
29 | RRIRNRPPRLPRPRPRPEWVPRP | 0.0314
30 | RRIRNRPPRLPRPRPRPEYWPRP | -0.103
31 | RRIRNRPPRLPRPRPRPFFCPRP | 0.118
32 | RRIRNRPPRLPRPRPRPFFDPRP | -0.0739
33 | RRIRNRPPRLPRPRPRPFHCPRP | -0.536
34 | RRIRNRPPRLPRPRPRPFHKPRP | -0.107
35 | RRIRNRPPRLPRPRPRPFHTPRP | -0.232
36 | RRIRNRPPRLPRPRPRPFIFPRP | -0.373
37 | RRIRNRPPRLPRPRPRPFIIPRP | -0.41
38 | RRIRNRPPRLPRPRPRPFILPRP | -0.634
39 | RRIRNRPPRLPRPRPRPFKVPRP | 0.0253
40 | RRIRNRPPRLPRPRPRPFLCPRP | -0.966
41 | RRIRNRPPRLPRPRPRPFLYPRP | -0.468
42 | RRIRNRPPRLPRPRPRPFMIPRP | -0.294
43 | RRIRNRPPRLPRPRPRPFMNPRP | -0.195
44 | RRIRNRPPRLPRPRPRPFNQPRP | -0.408
45 | RRIRNRPPRLPRPRPRPFNVPRP | 0.109
46 | RRIRNRPPRLPRPRPRPFPIPRP | -0.132
47 | RRIRNRPPRLPRPRPRPFPYPRP | -0.4
48 | RRIRNRPPRLPRPRPRPFQCPRP | -0.0493
49 | RRIRNRPPRLPRPRPRPFQNPRP | -0.0271
50 | RRIRNRPPRLPRPRPRPFSEPRP | -0.0347

Row | Sequence | shrunken log2 fold change
51 | RRIRNRPPRLPRPRPRPFVNPRP | -0.0775
52 | RRIRNRPPRLPRPRPRPFYIPRP | -0.51
53 | RRIRNRPPRLPRPRPRPGAWPRP | 0.0927
54 | RRIRNRPPRLPRPRPRPGCEPRP | 0.212
55 | RRIRNRPPRLPRPRPRPGEHPRP | 0.00902
56 | RRIRNRPPRLPRPRPRPGFNPRP | -0.207
57 | RRIRNRPPRLPRPRPRPGGCPRP | 0.203
58 | RRIRNRPPRLPRPRPRPGHIPRP | -0.433
59 | RRIRNRPPRLPRPRPRPGHQPRP | -0.0155
60 | RRIRNRPPRLPRPRPRPGILPRP | -0.337
61 | RRIRNRPPRLPRPRPRPGKWPRP | -0.0427
62 | RRIRNRPPRLPRPRPRPGLGPRP | 0.611
63 | RRIRNRPPRLPRPRPRPGLKPRP | 0.265
64 | RRIRNRPPRLPRPRPRPGLMPRP | 0.235
65 | RRIRNRPPRLPRPRPRPGLPPRP | 0.028
66 | RRIRNRPPRLPRPRPRPGMAPRP | 0.0313
67 | RRIRNRPPRLPRPRPRPGMFPRP | -0.252
68 | RRIRNRPPRLPRPRPRPGMHPRP | -0.015
69 | RRIRNRPPRLPRPRPRPGNAPRP | 0.0258
70 | RRIRNRPPRLPRPRPRPGNSPRP | -0.0208
71 | RRIRNRPPRLPRPRPRPGQDPRP | -0.0269
72 | RRIRNRPPRLPRPRPRPGQKPRP | -0.000842
73 | RRIRNRPPRLPRPRPRPGQLPRP | -0.126
74 | RRIRNRPPRLPRPRPRPGRKPRP | 0.132
75 | RRIRNRPPRLPRPRPRPGRSPRP | 0.17

Row | Sequence | shrunken log2 fold change
76 | RRIRNRPPRLPRPRPRPGTAPRP | -0.0363
77 | RRIRNRPPRLPRPRPRPGTDPRP | -0.0425
78 | RRIRNRPPRLPRPRPRPGVWPRP | 0.474
79 | RRIRNRPPRLPRPRPRPGWAPRP | 0.135
80 | RRIRNRPPRLPRPRPRPGWGPRP | 0.492
81 | RRIRNRPPRLPRPRPRPGWMPRP | 0.142
82 | RRIRNRPPRLPRPRPRPGWQPRP | 0.116
83 | RRIRNRPPRLPRPRPRPGWWPRP | -0.0419
84 | RRIRNRPPRLPRPRPRPHARPRP | 0.187
85 | RRIRNRPPRLPRPRPRPHCFPRP | -0.641
86 | RRIRNRPPRLPRPRPRPHCGPRP | -0.225
87 | RRIRNRPPRLPRPRPRPHCKPRP | -0.249
88 | RRIRNRPPRLPRPRPRPHDIPRP | -0.0337
89 | RRIRNRPPRLPRPRPRPHFVPRP | -0.0954
90 | RRIRNRPPRLPRPRPRPHGCPRP | -0.0193
91 | RRIRNRPPRLPRPRPRPHGVPRP | 0.0154
92 | RRIRNRPPRLPRPRPRPHHGPRP | -0.00683
93 | RRIRNRPPRLPRPRPRPHHPPRP | -0.398
94 | RRIRNRPPRLPRPRPRPHHVPRP | -0.0011
95 | RRIRNRPPRLPRPRPRPHKPPRP | -0.368
96 | RRIRNRPPRLPRPRPRPHLFPRP | -0.0208
97 | RRIRNRPPRLPRPRPRPHNEPRP | -0.509
98 | RRIRNRPPRLPRPRPRPHNMPRP | -1.06
99 | RRIRNRPPRLPRPRPRPHNNPRP | -1.05
100 | RRIRNRPPRLPRPRPRPHPEPRP | 0.00649

Row | Sequence | shrunken log2 fold change
101 | RRIRNRPPRLPRPRPRPHPVPRP | -0.269
102 | RRIRNRPPRLPRPRPRPHQDPRP | -0.297
103 | RRIRNRPPRLPRPRPRPHQMPRP | -0.114
104 | RRIRNRPPRLPRPRPRPHQNPRP | -0.239
105 | RRIRNRPPRLPRPRPRPHSKPRP | -0.117
106 | RRIRNRPPRLPRPRPRPHVNPRP | -0.237
107 | RRIRNRPPRLPRPRPRPHWHPRP | -0.65
108 | RRIRNRPPRLPRPRPRPHWRPRP | 0.201
109 | RRIRNRPPRLPRPRPRPHYIPRP | -0.842
110 | RRIRNRPPRLPRPRPRPHYKPRP | -0.333
111 | RRIRNRPPRLPRPRPRPIANPRP | 0.000407
112 | RRIRNRPPRLPRPRPRPIARPRP | -0.0163
113 | RRIRNRPPRLPRPRPRPICRPRP | -0.0024
114 | RRIRNRPPRLPRPRPRPICWPRP | -0.0674
115 | RRIRNRPPRLPRPRPRPIDGPRP | -0.00962
116 | RRIRNRPPRLPRPRPRPIDTPRP | -0.0154
117 | RRIRNRPPRLPRPRPRPIEFPRP | -0.235
118 | RRIRNRPPRLPRPRPRPIFHPRP | -0.358
119 | RRIRNRPPRLPRPRPRPIFTPRP | -0.424
120 | RRIRNRPPRLPRPRPRPIGWPRP | 0.115
121 | RRIRNRPPRLPRPRPRPIIGPRP | 0.0444
122 | RRIRNRPPRLPRPRPRPIISPRP | 0.0108
123 | RRIRNRPPRLPRPRPRPIKFPRP | -0.165
124 | RRIRNRPPRLPRPRPRPILAPRP | -0.264
125 | RRIRNRPPRLPRPRPRPILIPRP | -0.37

Row | Sequence | shrunken log2 fold change
126 | RRIRNRPPRLPRPRPRPILVPRP | -0.0115
127 | RRIRNRPPRLPRPRPRPINNPRP | -0.652
128 | RRIRNRPPRLPRPRPRPINSPRP | -0.208
129 | RRIRNRPPRLPRPRPRPINYPRP | -0.262
130 | RRIRNRPPRLPRPRPRPISGPRP | -0.0579
131 | RRIRNRPPRLPRPRPRPISHPRP | -0.963
132 | RRIRNRPPRLPRPRPRPIVAPRP | -0.367
133 | RRIRNRPPRLPRPRPRPIYFPRP | -0.767
134 | RRIRNRPPRLPRPRPRPKAWPRP | 0.133
135 | RRIRNRPPRLPRPRPRPKCAPRP | 0.243
136 | RRIRNRPPRLPRPRPRPKDKPRP | -0.112
137 | RRIRNRPPRLPRPRPRPKDMPRP | -0.0164
138 | RRIRNRPPRLPRPRPRPKEDPRP | 0.0361
139 | RRIRNRPPRLPRPRPRPKGWPRP | 0.439
140 | RRIRNRPPRLPRPRPRPKILPRP | 0.0428
141 | RRIRNRPPRLPRPRPRPKLMPRP | -0.109
142 | RRIRNRPPRLPRPRPRPKMAPRP | -0.00757
143 | RRIRNRPPRLPRPRPRPKMFPRP | -0.00426
144 | RRIRNRPPRLPRPRPRPKNRPRP | 0.0314
145 | RRIRNRPPRLPRPRPRPKPGPRP | 0.235
146 | RRIRNRPPRLPRPRPRPKPIPRP | 0.202
147 | RRIRNRPPRLPRPRPRPKPKPRP | 0.211
148 | RRIRNRPPRLPRPRPRPKPWPRP | 0.217
149 | RRIRNRPPRLPRPRPRPKRQPRP | -0.0692
150 | RRIRNRPPRLPRPRPRPKSAPRP | 0.265
